Assays:
[1] = molecular target: GAL4 DNA-binding domain-fused Bombyx mori Siwi (pDBD-Siwi) (Bombyx mori) (UniProt A8D8P8); test: two-hybrid; insect two-hybrid (I2H) in BmN4 cells: GAL4 DBD bait, p65 AD prey, 4xUAS-TATA-Luc reporter, luciferase at 72 h post-transfection, relative to the pUC18 control prey; also in BmN4-SID1 cells 72 h after dsRNA against HP1a, HP1b, Ago3, Siwi, putative piRNA-related genes or GFP (control)
[2] = molecular target: GAL4 DNA-binding domain-fused Bombyx mori Ago3 (pDBD-Ago3) (Bombyx mori) (UniProt A9ZSZ2); test: as above
UniProt A9ZSZ2, sequence (A9ZSZ2 whole entry, the tested form may be a part): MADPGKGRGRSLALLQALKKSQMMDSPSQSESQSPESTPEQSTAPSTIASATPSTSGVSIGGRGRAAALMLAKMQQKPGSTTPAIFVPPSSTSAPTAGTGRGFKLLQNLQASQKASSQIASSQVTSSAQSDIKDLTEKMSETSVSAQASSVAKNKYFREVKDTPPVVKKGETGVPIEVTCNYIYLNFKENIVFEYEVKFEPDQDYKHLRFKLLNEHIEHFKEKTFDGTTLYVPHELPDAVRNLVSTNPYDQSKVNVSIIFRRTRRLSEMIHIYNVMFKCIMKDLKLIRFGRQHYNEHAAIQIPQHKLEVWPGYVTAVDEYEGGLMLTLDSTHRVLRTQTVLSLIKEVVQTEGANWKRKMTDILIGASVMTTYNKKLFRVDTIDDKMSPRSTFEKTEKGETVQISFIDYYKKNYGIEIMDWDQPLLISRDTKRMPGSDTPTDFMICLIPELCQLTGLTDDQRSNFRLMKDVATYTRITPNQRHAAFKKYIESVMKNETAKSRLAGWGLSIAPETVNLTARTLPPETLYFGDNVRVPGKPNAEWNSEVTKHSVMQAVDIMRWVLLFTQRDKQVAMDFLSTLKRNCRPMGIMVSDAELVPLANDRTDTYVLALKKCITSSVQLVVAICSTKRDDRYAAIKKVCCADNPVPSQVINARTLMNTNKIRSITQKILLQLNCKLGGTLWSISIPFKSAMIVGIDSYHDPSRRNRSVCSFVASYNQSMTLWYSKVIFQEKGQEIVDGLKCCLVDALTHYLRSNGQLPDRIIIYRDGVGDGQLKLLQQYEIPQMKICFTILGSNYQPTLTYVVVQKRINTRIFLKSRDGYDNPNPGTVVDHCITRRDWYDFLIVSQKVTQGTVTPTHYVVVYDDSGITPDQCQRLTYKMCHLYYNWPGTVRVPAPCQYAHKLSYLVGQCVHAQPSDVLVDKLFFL

UniProt A8D8P8, sequence (A8D8P8 whole entry, the tested form may be a part): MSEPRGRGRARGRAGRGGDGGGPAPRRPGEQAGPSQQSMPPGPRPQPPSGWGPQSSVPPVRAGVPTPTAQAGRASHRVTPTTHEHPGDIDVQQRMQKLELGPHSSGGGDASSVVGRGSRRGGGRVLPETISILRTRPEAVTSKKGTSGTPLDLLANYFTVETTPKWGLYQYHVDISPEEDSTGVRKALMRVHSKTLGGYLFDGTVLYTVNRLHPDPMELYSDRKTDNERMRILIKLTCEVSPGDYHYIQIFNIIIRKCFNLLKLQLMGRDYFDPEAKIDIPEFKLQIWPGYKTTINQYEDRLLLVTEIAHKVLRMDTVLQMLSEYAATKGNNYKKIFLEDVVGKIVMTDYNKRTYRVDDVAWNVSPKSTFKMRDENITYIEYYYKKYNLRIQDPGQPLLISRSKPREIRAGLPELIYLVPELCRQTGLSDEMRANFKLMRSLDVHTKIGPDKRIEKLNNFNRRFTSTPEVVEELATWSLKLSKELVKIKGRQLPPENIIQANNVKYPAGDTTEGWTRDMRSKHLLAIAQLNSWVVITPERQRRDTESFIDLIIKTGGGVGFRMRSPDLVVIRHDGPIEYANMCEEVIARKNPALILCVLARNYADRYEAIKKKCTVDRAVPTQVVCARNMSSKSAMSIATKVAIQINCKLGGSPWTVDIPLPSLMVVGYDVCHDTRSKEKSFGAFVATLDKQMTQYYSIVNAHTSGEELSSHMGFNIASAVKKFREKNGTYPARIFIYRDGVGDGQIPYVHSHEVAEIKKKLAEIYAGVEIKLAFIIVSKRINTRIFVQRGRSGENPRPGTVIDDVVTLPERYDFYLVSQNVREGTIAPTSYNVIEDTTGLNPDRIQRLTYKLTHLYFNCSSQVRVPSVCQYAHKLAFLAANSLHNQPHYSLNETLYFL

Substance “p65 activation domain-fused Bombyx mori HP1a (pAD-HP1a) (natural protein)” has a fold increase of reporter activity over the pUC18 control [1] greater than 10 fold and a fold increase of reporter activity over the pUC18 control [2] greater than 10 fold.
